Source: patent US20110165265A1, “TRAIL VARIANTS FOR TREATING CANCER” (FUNDACIÓ GENÒMICA (CRG), priority 2007, published 2011)
Where “and” joins values, the source holds several entries; their conditions need not be identical. Identical values can stand only once. Entries after “also recorded” stand apart in the source; their conditions may differ.

T1: DcR1 (Homo sapiens, UniProt O14798)
T1 construct: soluble, recombinant DcR1-Ig (sDcR1) and DcR2-Ig (sDcR2); purchased R&D Systems
T1 sequence (O14798 26-236 limits assumed): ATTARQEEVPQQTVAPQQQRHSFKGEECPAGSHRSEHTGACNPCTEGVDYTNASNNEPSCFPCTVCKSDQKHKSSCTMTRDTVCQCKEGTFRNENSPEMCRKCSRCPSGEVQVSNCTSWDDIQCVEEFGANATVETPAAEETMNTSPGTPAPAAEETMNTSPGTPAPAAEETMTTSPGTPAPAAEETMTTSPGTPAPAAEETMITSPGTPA

B1: wtTRAIL: wild-type soluble recombinant human TRAIL, amino acids 114-281 (SEQ ID NO: 3) (protein, listed as Homo sapiens)
chain: MVRRGRVAAHTGTRGRSNTSSNSKNKAGRKNSWSSRSGHSSNHRNGVHKGYYYSTYRKNTKNDKMVYYKYTSYDMKSARNSCWSKDAYGYSYGGKNDRVSVTNHDMDHASGAVG
modifications: TRAIL 114-281
B2: D269HE195R: rhTRAIL (114-281) carrying mutations D269H and E195R; DR5-selective TRAIL variant (protein)
chain: MVRERGPQRVAAHITGTRGRSNTLSSPNSKNEKALGRKINSWESSRSGHSFLSNLHLRNGELVIHEKGFYYIYSQTYFRFQERIKENTKNDKQMVQYIYKYTSYPDPILLMKSARNSCWSKDAEYGLYSIYQGGIFELKENDRIFVSVTNEHLIDMHHEASFFGAFLVG

How the values were obtained:
[1] = test system: Colo205 cells; assay: DEVDase (caspase) activity in Colo205; type: cell-based, human; settings: Colo205, 5 mM aspirin 24 h
Description: (A) Aspirin induces expression of DR5, DcR1 and DcR2 on the cell surface. Colo205 cells were treated with 5 mM aspirin for 24 h and cell surface expression of DR4, DR5, DcR1 and DcR2 was measured by immunostaining and detected with flow cytometry. The histograms shown include isotype control (black, open peak), untreated Colo205 (grey, closed peak) and aspirin-treated Colo205 (grey, open peak) samples. The histograms are representatives of three independent experiments. […] DEVDase activity was expressed as average nmol AMC released per minute by 1 mg total cellular protein±SD of 3 independent experiments.
In order to determine the cell surface expression of each of the TRAIL receptors on A2780 carcinoma cells, cells were washed twice in PBS containing 1% BSA and then incubated with monoclonal antibodies to DR4, DR5, DcR1 or DcR2 (Alexis) for 40 min. After two wash steps with PBS/BSA, anti-mouse IgG-FITC (Sigma) secondary antibody was added for 30 min. All incubations were carried out on ice. Negative controls contained isotype control antibody. Cells were analyzed by a FacsCalibur flow cytometer. […] Substrate cleavage leading to the release of free AMC was monitored at 37° C. at 60 sec intervals for 25 cycles using a Wallac multilabel counter (excitation 355 nm, emission 460 nm). […]

[2] = test system: Colo205 cells; assay: Kinetics of receptor activation and apoptosis induction, ligand wash-out in Colo205; type: cell-based, human; settings: Colo205, 30 ng/ml; for incubation time to reach 50% of total efficacy: ligand washed out, Annexin V at 240 min
Description: Cell death induction was expressed relative to the percentage of death induced after 240 min without washing out the ligands.
The cells were harvested and cell death was quantified with Annexin V labelling (FIG. 16B), as described above. The data was fitted with an interpolating spline using the software MatlabR.
The cells were then incubated to a total of 180 min in normal growth medium and then the level of cell death was determined (FIG. 16C).

[3] = test system: A2780 cells; assay: Annexin V apoptosis assay in A2780; type: cell-based, human
[4] = test system: A2780 cells; assay: Microculture tetrazolium cytotoxicity assay in A2780; type: cell-based, human; settings: A2780, 96 h
Description: The microculture tetrazolium assay, performed as described earlier^36, was used to measure cytotoxicity. […] In cell viability assays assessing combination treatment with cisplatin, the cells were pre-incubated for 4 h (h) with 2.5 μM cisplatin (inhibitory concentration 20%-IC20), before addition of 0-25 ng/ml TRAIL or TRAIL-DR5.

[5] = test system: A2780 cells; assay: Caspase-3 activity and acridine orange apoptosis assays in A2780; type: cell-based, human; settings: for effect of DcR2 blocking antibody on apoptosis induction: A2780; for effect of DR5 siRNA on induced apoptosis: A2780, also with cisplatin
[6] = test system: human umbilical vein endothelial cells (HUVEC); assay: Viability of HUVEC; type: cell-based; settings: for cell viability: 50-500 ng/ml, 24 h, MTT
Description: Human dermal fibroblasts were grown in low glucose DMEM (Sigma) supplemented with 10% fetal calf serum, 50 U/ml penicillin and […] streptomycin; human umbilical vein endothelial cells (HUVEC, PromoCell) were cultured in Endothelial Cell Growth Medium with SupplementMix (PromoCell). Fibroblasts and HUVEC cells were seeded at 1.3×10^5 cells/ml 24 h before treatment with increasing concentrations of TRAIL and DR5-selective variants, D269H and D269HE195R (50-500 ng/ml) for 24 h and cell viability was measured using MTT assay, wherein 200 μg/ml MTT (3-(4,5-dimethylthiazo1-2-yl)-2,5-diphenyl-tetrazolium bromide) was added to control and treated cells and incubated for 3 h at 37° C. The reaction was stopped and the purple formazan precipitate formed was dissolved using dimethyl sulfoxide (DMSO) and the colour intensity was measured at 550 nm on a Wallac multilabel counter. The control value corresponding to untreated cells was taken as 100% and the viability of treated samples was expressed as a percentage of the control. (FIG. 15).

[7] = test system: Colo205 tumors; assay: Colo205 tumors in athymic nude mice; type: in vivo; settings: for anti-tumor effect, single therapy: 1 and 5 mg/kg IP
Description: The anti-tumor effect of rhTRAIL WT and D269HE195R was tested in a small number of athymic nude mice carrying a tumor of Colo205 cells (n=3 to 5 per group). The rhTRAIL proteins were tested in doses of 1 and 5 mg/kg, given by intraperitoneal injections for 2×5 days (day 1-5 and 8-12) with a daily doses of aspirin (in the same syringe as protein).
In a third study the combination between TRAIL and aspirin was tested. […] Both were tested in doses of 1 and 5 mg/kg, given by intraperitoneal injections for 2×5 days (day 1-5 and 8-12) with daily doses of aspirin (in the same syringe as protein). Data is only presented until day 13, because of too many fluctuations and mice dying after this day.

[8] = test system: SW948 cells; assay: Cell survival / sensitivity of SW948; type: cell-based
[9] = test system: HCT15, HT29 and RKO cells; assay: Cell survival of HCT15, HT29 and RKO; type: cell-based
[10] = biological target: T2, DR4 (Homo sapiens, UniProt O00220); settings: cited from earlier work
T2 construct: the more commonly used dimeric TRAIL-receptor-IgG Fc chimeric constructs

[11] = biological target: T1, DcR1; settings: cited from earlier work
[12] = lowest dose 1 mg/kg + 200 mg/kg aspirin

T2 sequence (O00220 24-239 limits assumed): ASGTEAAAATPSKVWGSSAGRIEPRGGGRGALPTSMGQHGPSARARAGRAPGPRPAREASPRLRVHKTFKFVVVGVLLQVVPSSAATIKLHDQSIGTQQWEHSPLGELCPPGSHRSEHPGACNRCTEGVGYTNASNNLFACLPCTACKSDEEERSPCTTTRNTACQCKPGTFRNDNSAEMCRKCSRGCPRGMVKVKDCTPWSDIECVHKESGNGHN

| Molecule | sensitisation by aspirin [1] | incubation time to reach 50% of total efficacy [2] | cell survival / viability [4] | effect of DcR2 blocking antibody on apoptosis induction [5] | effect of DR5 siRNA on induced apoptosis [5] | cell viability [6] | effect of combination with aspirin ([7]; 5 mg/kg + 200 mg/kg aspirin) | effect of combination with aspirin [7, 12] | cell viability, single agent [8] | cell viability with or without 5-Flurouracil [9] | further results |
| --- | --- | --- | --- | --- | --- | --- | --- | --- | --- | --- | --- |
| B1 | increased the sensitivity | 60.81 min and 60.8 ± 4.3 min | dose dependent loss of viability | did not enhance apoptosis induction | completely protected | Neither wtTRAIL nor the DR5-selective variants had any effect; also recorded: did not result in a decrease in cell viability | additive effect | additive effect | greater loss in cell viability compared to that of the DR5 mutant at higher concentrations | equal decrease in cell viability | incubation time for significant pro-caspase-8 processing ([2]; Western blot): 60 min; cell death ([3]; A2780, highest concentration tested 250 ng/ml): ≤ 24.3±4.5%; cytotoxic effects on noncancerous cells ([6]; 100 ng/ml): no cytotoxic effects were observed; effect of 5-FU on sensitivity [8]: enhanced sensitivity; sensitivity, single agent comparison [8]: higher sensitivity; Kd ([10]; surface plasmon resonance, read-out: binding affinity Kd for DR4): 2.5 nM; Kd ([11]; surface plasmon resonance, read-out: binding affinity Kd for DcR1): ~25 nM |
| B2 | much more pronounced | 3.55 min and 3.6 ± 0.4 min | decreased cell survival more effectively than TRAIL | did not enhance apoptosis induction | completely protected | did not result in a decrease in cell viability | not visible | additive effect | decreased cell viability | equal decrease in cell viability | effect of 5 or 10 min pre-incubation with wtTRAIL on induced apoptosis [2]: failed to reduce; apoptosis ([3]; A2780, 10 ng/ml, Annexin V): 30.6±2.5%; anti-tumor effect, single therapy ([7]; listed as TRAIL-DR5): nice response; anti-tumor effect, single therapy ([7]; listed as mutant TRAIL): reduces the tumor growth; also recorded: some positive effect on the tumor growth; effect of Aspirin [8]: enhanced the effect; binding to DR4 ([10]; earlier work referred to): virtually absent; binding capacity to DcR1 ([11]; earlier work referred to): virtually absent |
